Test results: the nanobody polyreactivity screen of Harvey et al. (2022)

Test: yeast display, Sf9 membrane polyspecificity reagent, FACS + sequencing; frameworks hold sequencing errors
Procedure, shortened: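 Synthetic nanobody libraries on Saccharomyces cerevisiae BJ5465 were galactose-induced for 36–48 hours, stained 1 hour at 4 °C with 10% biotinylated, detergent-solubilized Sf9 membrane reagent and enriched on streptavidin microbeads. FACS then separated cells into low and high (top ~1%) gates by anti-HA (expression) and streptavidin (reagent binding) fluorescence. Genes were colony-PCR amplified, MiSeq 2 × 250 sequenced and CDR-length filtered. A clone's polyreactivity label is that of its gate of origin.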

| Sequence | polyreactivity (PSR sort gate) |
| --- | --- |
| QVQLVESGGGLVQAGGSLRLSCAASGRIFAYYAMGWYRQAPGKERELVAAISRSGVSTYYADSVKGRFTISRDNAKNTVYLQMNSLKPEDTAVYYCAASWWYEIFDYWGQGTQVTVSS | low polyreactivity |
| QVQLVESGGGLVQAGGSLRLSCAASGRIFAYYAMGWYRQAPGKERELVATISVTGGSTYYADSVKGRFTISRDNAKNTVYLQMNSLKPEDTAVYYCNVDPGTYWPYSGEDYWGQGTQVTVSS | low polyreactivity |
| QVQLVESGGGLVQAGGSLRLSCAASGRIFCDNGMGWYRQAPAKESELVTYADSVKGLFTISRDNAKNTVYLQMNSLKPEDTAVYYCNKDPPRFSGLDENYWGQGTQVTVSS | low polyreactivity |
| QVQLVESGGGLVQAGGSLRLSCAASGRIFCFNAMGWYRQAPGKERELVAAISGTGGSTYYADSEKGRFTISRDNAKNTVYLQMNSLKPEDTAVYYCAAFYNYYGQRYYYWGQGTQVTVSS | high polyreactivity |
| QVQLVESGGGLVQAGGSLRLSCAASGRIFCKYAMGWYIQAPGKERELVAAISRSGASTYYADSVKGRFTISRDNAKNTVYLQMNSLKPEDTAVYYCAAVPPYNYRFRVYYWGQGTQVTVSS | high polyreactivity |
| QVQLVESGGGLVQAGGSLRLSCAASGRIFDCYAMGWYSQAPGKERELVAAITSRGGSTYYADSVKGRFTISRDNAKNTVYLQMNSLKPEDTAVYYCAKRSTSRGYDYWGQGTQVTVSS | high polyreactivity |
| QVQLVESGGGLVQAGGSLRLSCAASGRIFDDNAMGWYRQAPGKETELVAAISSSGGSTYYADSVKGRFTISRDNAKNSVYLQMNSLKPEDTAVYYCAKAPGQDTPYPYGYWGQGTQVTVSS | high polyreactivity |
| QVQLVESGGGLVQAGGSLRLSCAASGRIFDDNTMGWYRQAPGKEREVVAAISVSGGRTYYADSVKGRFTISRDNAKNTVYIQMNSLKPEDTAVYYCNARLGPFWDYRLKNGTHDYWGQGTQVTVAS | high polyreactivity |
| QVQLVESGGGLVQAGGSLRLSCAASGRIFDDYVMGWYRKAPGKERELVARISVRGGSTYYADSVKGRFTISRDNAKNTVYLQMNSLKPEDTAVYYCNAVFGGWLGPFDYWGQGTQVTVSS | low polyreactivity |
| QVQLVESGGGLVQAGGSLRLSCAASGRIFDFNAMGWYRQAPGKEREFVAAIRTSGGDSTYYADSVKGRFTISRDNAKTTVYLQMNSLTPEDTAVYYCAKTVWWYYRYPFDYWGQGTQVTVSS | low polyreactivity |
| QVQLVESGGGLVQAGGSLRLSCAASGRIFDGNAMGWYRKAPGKERELVATITRGGRTNYADSVKGRFTISRDNAKNTVYLQMNSLKPEDTAVYYCNAPIYGRYYDLDYWGQGTQVTVSS | low polyreactivity |
| QVQLVESGGGLVQAGGSLRLSCAASGRIFDGNAMGWYRQAPGKERELVAAISSSGGSTYYADSVKGRFTISRDNAKNTVYLQMNSLKPEDTAVYYCAYPLRRTWGNYRYGYWGQGTQVTVSS | high polyreactivity |
| QVQLVESGGGLVQAGGSLRLSCAASGRIFDGYAMGWYRQAPGKERELVAAISNGGGSTYYADSVKGRFTISRDNAKNTVYLQMNSLKPEDTAVYYCAARIFSRYTRNYWGQGTQVTVSS | high polyreactivity |
| QVQLVESGGGLVQAGGSLRLSCAASGRIFDHNAMGWYRQAPGKERELVAAIDSGTSTNYADSVKGRFTISRDNAKNTVYLQMNSLKPEDTAVYYCARLLGPVRDKYDYDYWGQGTQVTVSS | low polyreactivity |
| QVQLVESGGGLVQAGGSLRLSCAASGRIFDIYAMGWSRQAPGKERELVAAIDESGGSTYYADSVKGRFTISRDNAKNTVYLQMNSLKPEDTAVDYCATDDTWTIAYGWYWFTYEYWGQGTQVTVSS | low polyreactivity |
| QVQLVESGGGLVQAGGSLRLSCAASGRIFDIYAMGWYRQAPGKEGELVAAIRLSSGTTYYADSLKGRITISRDYAKNNVYLQMSSVKQEDSAVYYCNAIYRRGRPGYYYWGQGTQVNVSS | high polyreactivity |
| QVQLVESGGGLVQAGGSLRLSCAASGRIFDIYAMGWYRQAPGKERELVAAIDESGGSTYYADSVKGRFTISRDNAKNTVYLQMNSLKPEDTAVYYCATVDTWTISYGWYCFTYEYWGQCTQVTVSS | low polyreactivity |
